From US20080057516A1 (published 2008)

B1: Persephin (PSPN) (ligand, UniProt O60542 61-156, looked up)
chain: ALSGPCQLWSLTLSVAELGLGYASEEKVIFRYCAGSCPRGARTQHGLALARLQGQGRAHGGPCCRPTRYTDVAFLDDRHRWQRLPQLSAAACGCGG
B2: Glial cell line-derived neurotrophic factor (GDNF) (ligand, UniProt P39905 78-211, looked up)
chain: SPDKQMAVLPRRERNRQAAAANPENSRGKGRRGQRGKNRGCVLTAIHLNVTDLGLGYETKEELIFRYCSGSCDAAETTYDKILKNLSRNRRLVSDKVGQACCRPIAFDDDLSFLDDNLVYHILRKHSAKRCGCI
notes: Immobilised on an aminosilane cuvette for SPR, or coated on plastic, glass or filters for the cell assays; also called wtGDNF; unlabeled (Cold) GDNF
B3: Neurturin (NRTN) (ligand, UniProt Q99748 96-197, looked up)
chain: ARLGARPCGLRELEVRVSELGLGYASDETVLFRYCAGACEAAARVYDLGLRRLRQRRRLRRERVRAQPCCRPTAYEDEVSFLDAHSRYHTVHELSARECACV
B4: Artemin (ARTN) (ligand, UniProt Q5T4W7 108-220, looked up)
chain: AGGPGSRARAAGARGCRLRSQLVPVRALGLGHRSDELVRFRFCSGSCRRARSPHDLSLASLLGAGALRPPPGSRPVSQPCCRPTRYEAVSFMDVNSTWRTVDRLSATACGCLG

How the values were obtained:
[1] = biological target: T1, Syndecan-3 ectodomain purified from early postnatal rat brain (rat, UniProt P33671 45-387, carries natural heparan sulfate (HS) side chains; attachment residues not stated); assay: SPR (IAsys), GFL immobilised, syndecan-3 ectodomain in solution; equilibrium response; equilibrium response only; syndecan-3 concentrations limiting, dynamics could not be fit
T1 construct: extracellular domain; Native proteoglycan; also called S3; extracellular domain of syndecan-3
T1 sequence (P33671 45-387): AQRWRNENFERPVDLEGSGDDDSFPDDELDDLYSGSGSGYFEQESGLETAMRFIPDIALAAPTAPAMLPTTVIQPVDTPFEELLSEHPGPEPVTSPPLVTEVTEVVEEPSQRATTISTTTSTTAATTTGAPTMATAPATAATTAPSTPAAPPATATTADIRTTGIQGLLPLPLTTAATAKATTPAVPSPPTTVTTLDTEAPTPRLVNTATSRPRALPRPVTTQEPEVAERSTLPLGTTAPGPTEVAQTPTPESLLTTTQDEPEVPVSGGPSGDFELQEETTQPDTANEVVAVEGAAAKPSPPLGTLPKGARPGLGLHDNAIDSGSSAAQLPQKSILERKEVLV

[2] = biological target: T1, Syndecan-3 ectodomain purified from …; assay: SPR (IAsys), GFL immobilised on aminosilane cuvette, syndecan-3 ectodomain in solution
Protocol: (§1) The affinities of GFLs for heparin and heparin-like molecules (e.g. syndecan-3) were determined by plasmon surface resonance using the IAsys system (Affinity Sensors, Cambridge, UK). Planar aminosilane cuvettes (Affinity Sensors) were used for protein coupling to avoid problems with mass transport, which occur frequently with matrix surfaces. In the initial approach, heparin-BSA was immobilized to the cuvette surface using the manufacturer's instructions and different ligand concentrations were used to determine association (kₐ) and dissociation (kdis) rates using the IAsys Fastfit software. The dissociation constant Kd was determined from the binding dynamics as […], or from equilibrium response (R) using a simple Langmuir fit: R=(Rₘₐₓ*C)/(Kd+C), where C is the ligand concentration. […] The dissociation constants were determined from binding dynamics and equilibrium response. The same cuvettes were used to test binding of heparan sulfate proteoglycan syndecan-3, which was purified as an ectodomain from early postnatal rat brains by HB-GAM affinity chromatography (Raulo et al., 1994).
(§2) Binding was analyzed using IAsys cuvettes with immobilized heparin-BSA or GFLs. The dissociation constant Kd was determined from dynamics of association and dissociation (Kd=kdis/kₐ), or from equilibrium response R (R=(Rₘₐₓ*C)/(Kd+C), where C is ligand concentration).

[3] = biological target: T1, Syndecan-3 ectodomain purified from …; assay: SPR (IAsys), GFL immobilised, syndecan-3 ectodomain in solution; equilibrium response
Protocol: as §1, §2

[4] = biological target: T1, Syndecan-3 ectodomain purified from …; assay: SPR (IAsys), GFL immobilised, syndecan-3 ectodomain in solution; Kd = kdis/ka
Protocol: as §1, §2

[5] = biological target: T1, Syndecan-3 ectodomain purified from …; assay: SPR (IAsys optical biosensor): ARTN immobilized on the aminosilane cuvette, syndecan-3 ectodomain (S3) in solution at 0 to about 95 nM. Kd from the equilibrium response (insert of the ARTN panel)
Protocol: as §1

Binder	Kd [1] [nM]	koff [2] [s⁻¹]	kon [2] [M⁻¹ s⁻¹]	Kd [3] [nM]	Kd [4] [nM]	Kd [5] [nM]
B1	> 70					
B2		0.015	1.3e+06	12	11.5	
B3		0.021	750000	28.5	26.3	
B4		0.034	630000	21.2	53.9	21.1
